The values below come from FireProtDB (doi:10.1093/protein/7.6.777).

First the molecules themselves.
B1: Subtilisin-chymotrypsin inhibitor-2A, P01053 (parent)
chain: MSSVEKKPEGVNTGAGDRHNLKTEWPELVGKSVEEAKKVILQDKPEAQIIVLPVGTIVTMEYRIDRVRLFVDKLDNIAQVPRVG

In this series the parent is B1. As to conditions: Hordeum vulgare, structure 2CI2, whole UniProt chain shown; for Tm / unfolding enthalpy (calorimetric): Thermal, DSC; for denaturant m value / denaturant midpoint (higher = more stable) / unfolding free energy: pH 6.25, 25 °C, GdnHCl, Fluorescence, MES 50 mM.

For orientation: Tm means the temperature at which the thermal transition is half complete. Turning to MSSVEKKPEGVNTGAGDRHNLKTEWPELVGKGVEEAKKVILQDKPEAQIIVLPVGTIVTMEYRIDRVRLFVDKLDNIAQVPRVG, the denaturant m value amounted to 2.1 kcal/mol/M, the “denaturant midpoint (higher = more stable)” value (shortened to “denaturant midpoint”) worked out at 3.59 M and the unfolding free energy worked out at 7.52 kcal/mol. Where the note is “pH 3.5, formate 10 mM”, the Tm is 69 °C and the “unfolding enthalpy (calorimetric)” value is 64 kcal/mol.

Take MSSVEKKPEGVNTGAGDRHNLKTEWPELVGKAVEEAKKVILQDKPEAQIIVLPVGTIVTMEYRIDRVRLFVDKLDNIAQVPRVG: the denaturant m value is 1.86 kcal/mol/M, the “denaturant midpoint” value is 3.54 M and the unfolding free energy stood at 6.58 kcal/mol. Further, where the note is “pH 3, glycine-HCl 10 mM”, the Tm was 58 °C and the “unfolding enthalpy (calorimetric)” value was 53 kcal/mol.

Consider MSSVEKKPEGVNTGAGDRHNLKTEWPELVGKAVAAAKKVILQDKPEAQIIVLPVGTIVTMEYRIDRVRLFVDKLDNIAQVPRVG, for which the denaturant m value worked out at 2.18 kcal/mol/M, the “denaturant midpoint” value was found to be 3.14 M and the unfolding free energy worked out at 6.86 kcal/mol. Moreover, for the setting “pH 3, glycine-HCl 10 mM”, the Tm is 56.2 °C and the “unfolding enthalpy (calorimetric)” value turned out to be 54 kcal/mol.

Regarding MSSVEKKPEGVNTGAGDRHNLKTEWPELVGKSVNEAKKVILQDKPEAQIIVLPVGTIVTMEYRIDRVRLFVDKLDNIAQVPRVG, the denaturant m value was 2.01 kcal/mol/M, the “denaturant midpoint” value worked out at 3.64 M and the unfolding free energy amounted to 7.29 kcal/mol.

For MSSVEKKPEGVNTGAGDRHNLKTEWPELVGKSVDEAKKVILQDKPEAQIIVLPVGTIVTMEYRIDRVRLFVDKLDNIAQVPRVG, the denaturant m value came to 1.83 kcal/mol/M, the “denaturant midpoint” value came to 3.73 M and the unfolding free energy was 6.84 kcal/mol.

Take MSSVEKKPEGVNTGAGDRHNLKTEWPELVGKSVQEAKKVILQDKPEAQIIVLPVGTIVTMEYRIDRVRLFVDKLDNIAQVPRVG: the denaturant m value was 1.87 kcal/mol/M, the “denaturant midpoint” value is 3.85 M and the unfolding free energy turned out to be 7.03 kcal/mol.

In the case of MSSVEKKPEGVNTGAGDRHNLKTEWPELVGKGVAAAKKVILQDKPEAQIIVLPVGTIVTMEYRIDRVRLFVDKLDNIAQVPRVG, the denaturant m value amounted to 2.15 kcal/mol/M, the “denaturant midpoint” value worked out at 3.16 M and the unfolding free energy was 6.79 kcal/mol. For the same variant, where the note is “pH 3, glycine-HCl 10 mM”, the Tm stood at 56.5 °C and the “unfolding enthalpy (calorimetric)” value is 55 kcal/mol.

On to MSSVEKKPEGVNTGAGDRHNLKTEWPELVGKSVAAAKKVILQDKPEAQIIVLPVGTIVTMEYRIDRVRLFVDKLDNIAQVPRVG, for which the denaturant m value stood at 2.11 kcal/mol/M, the “denaturant midpoint” value is 3.61 M and the unfolding free energy is 7.61 kcal/mol. Besides, where the note is “pH 3, glycine-HCl 10 mM”, the Tm was 60.1 °C and the “unfolding enthalpy (calorimetric)” value was found to be 58 kcal/mol.

MSSVEKKPEGVNTGAGDRHNLKTEWPELVGKSVENAKKVILQDKPEAQIIVLPVGTIVTMEYRIDRVRLFVDKLDNIAQVPRVG: the denaturant m value is 2.18 kcal/mol/M, the “denaturant midpoint” value is 3.45 M and the unfolding free energy was 7.53 kcal/mol.

Regarding MSSVEKKPEGVNTGAGDRHNLKTEWPELVGKSVEQAKKVILQDKPEAQIIVLPVGTIVTMEYRIDRVRLFVDKLDNIAQVPRVG, the denaturant m value is 1.84 kcal/mol/M, the “denaturant midpoint” value amounted to 3.76 M and the unfolding free energy worked out at 6.92 kcal/mol.

As for MSSVEKKPEGVNTGAGDRHNLKTEWPELVGKSVEDAKKVILQDKPEAQIIVLPVGTIVTMEYRIDRVRLFVDKLDNIAQVPRVG, the denaturant m value amounted to 2.2 kcal/mol/M, the “denaturant midpoint” value is 3.62 M and the unfolding free energy turned out to be 7.98 kcal/mol.
